Assay [1] addresses T1, recombinant PGRMC1 of the surface plasmon resonance analyses (human, UniProt O00264 44-195). Put plainly: SPR; haem-bound PGRMC1.
The target of assay [2] is T1, recombinant PGRMC1 of the surface …. Put plainly: SPR; haem-bound PGRMC1. This is another data set of the same source.
In assay [3] the target is T2, HO1 (Homo sapiens).
T2 chain: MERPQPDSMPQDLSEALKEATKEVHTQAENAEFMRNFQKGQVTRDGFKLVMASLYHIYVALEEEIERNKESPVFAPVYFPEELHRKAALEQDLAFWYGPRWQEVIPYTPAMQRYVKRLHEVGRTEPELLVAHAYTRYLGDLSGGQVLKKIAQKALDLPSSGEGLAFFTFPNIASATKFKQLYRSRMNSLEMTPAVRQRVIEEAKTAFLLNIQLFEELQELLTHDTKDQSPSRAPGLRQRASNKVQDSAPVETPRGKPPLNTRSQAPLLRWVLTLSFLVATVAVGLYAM
Put plainly: SPR.

Assay [4] deals with T2, HO1. Put plainly: SPR.
Assay [5] addresses Gαi1 (Homo sapiens). Put plainly: SPR.
Assay [6] concerns the target Gαi1 (Homo sapiens). Put plainly: SPR. This is another data set of the same source.

Sequence of Gαi1 (Homo sapiens) (chain, as listed by the source): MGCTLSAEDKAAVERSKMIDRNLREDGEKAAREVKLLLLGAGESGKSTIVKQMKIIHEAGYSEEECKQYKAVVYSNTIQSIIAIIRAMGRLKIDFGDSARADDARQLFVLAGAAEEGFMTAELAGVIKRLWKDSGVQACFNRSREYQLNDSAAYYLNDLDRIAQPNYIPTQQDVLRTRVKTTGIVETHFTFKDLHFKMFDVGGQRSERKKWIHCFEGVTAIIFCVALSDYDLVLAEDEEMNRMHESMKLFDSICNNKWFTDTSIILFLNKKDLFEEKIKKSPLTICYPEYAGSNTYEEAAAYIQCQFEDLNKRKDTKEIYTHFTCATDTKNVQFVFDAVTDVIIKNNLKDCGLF
T1 sequence (O00264 44-195): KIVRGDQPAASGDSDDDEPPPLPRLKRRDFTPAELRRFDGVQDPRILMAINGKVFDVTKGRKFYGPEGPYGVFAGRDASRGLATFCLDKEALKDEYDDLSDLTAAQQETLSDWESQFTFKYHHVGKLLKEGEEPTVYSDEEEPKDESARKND

B1: recombinant CYP51 (enzyme)
chain: MAAAAGMLLLGLLQAGGSVLGQAMEKVTGGNLLSMLLIACAFTLSLVYLIRLAAGHLVQLPAGVKSPPYIFSPIPFLGHAIAFGKSPIEFLENAYEKYGPVFSFTMVGKTFTYLLGSDAAALLFNSKNEDLNAEDVYSRLTTPVFGKGVAYDVPNPVFLEQKKMLKSGLNIAHFKQHVSIIEKETKEYFESWGESGEKNVFEALSELIILTASHCLHGKEIRSQLNEKVAQLYADLDGGFSHAAWLLPGWLPLPSFRRRDRAHREIKDIFYKAIQKRRQSQEKIDDILQTLLDATYKDGRPLTDDEVAGMLIGLLLAGQHTSSTTSAWMGFFLARDKTLQKKCYLEQKTVCGENLPPLTYDQLKDLNLLDRCIKETLRLRPPIMIMMRMARTPQTVAGYTIPPGHQVCVSPTVNQRLKDSWVERLDFNPDRYLQDNPASGEKFAYVPFGAGRHRCIGENFAYVQIKTIWSTMLRLYEFDLIDGYFPTVNYTTMIHTPENPVIRYKRRSK
Regarding B1, in assay [1], the koff is 0.0012 s⁻¹. For the same molecule, the dissociation constant (Kd) in assay [2] came out at 5.9 µM.

B2: CPR (protein)
chain: MGDSHVDTSSTVSEAVAEEVSLFSMTDMILFSLIVGLLTYWFLFRKKKEEVPEFTKIQTLTSSVRESSFVEKMKKTGRNIIVFYGSQTGTAEEFANRLSKDAHRYGMRGMSADPEEYDLADLSSLPEIDNALVVFCMATYGEGDPTDNAQDFYDWLQETDVDLSGVKFAVFGLGNKTYEHFNAMGKYVDKRLEQLGAQRIFELGLGDDDGNLEEDFITWREQFWPAVCEHFGVEATGEESSIRQYELVVHTDIDAAKVYMGEMGRLKSYENQKPPFDAKNPFLAAVTTNRKLNQGTERHLMHLELDISDSKIRYESGDHVAVYPANDSALVNQLGKILGADLDVVMSLNNLDEESNKKHPFPCPTSYRTALTYYLDITNPPRTNVLYELAQYASEPSEQELLRKMASSSGEGKELYLSWVVEARRHILAILQDCPSLRPPIDHLCELLPRLQARYYSIASSSKVHPNSVHICAVVVEYETKAGRINKGVATNWLRAKEPAGENGGRALVPMFVRKSQFRLPFKATTPVIMVGPGTGVAPFIGFIQERAWLRQQGKEVGETLLYYGCRRSDEDYLYREELAQFHRDGALTQLNVAFSREQSHKVYVQHLLKQDREHLWKLIEGGAHIYVCGDARNMARDVQNTFYDIVAELGAMEHAQAVDYIKKLMTKGRYSLDVWS
modifications: FAD and FMN cofactors; literature comparison value, construct not given, full length and human species assumed haem state not stated; literature comparison value, the cited study may have used a C-terminally truncated soluble form
B2 gave a dissociation rate constant (koff) in the assay with HO1 [3] of 0.004 s⁻¹. This molecule displayed an equilibrium dissociation constant (Kd) with HO1 [4] of 2400 nM.

B3: Neuroglobin (protein)
chain: MERPEPELIRQSWRAVSRSPLEHGTVLFARLFALEPDLLPLFQYNCRQFSSPEDCLSSPEFLDHIRKVMLVIDAAVTNVEDLSSLEEYLASLGRKHRAVGVKLSSFSTVGESLLYMLEKCLGPAFTPATRAAWSQLYGAVVQAMSRGWDGE
modifications: haem b bound (oxidation state not stated); literature comparison value, construct not given; check residues are from general knowledge, not the paper nucleotide state not stated; literature comparison value, construct and species not given; check residues are from general knowledge, not the paper
Take B3: the koff with Gαi1 [5] came out at 0.0003 s⁻¹. Also, the dissociation constant Kd with Gαi1 [6] came to 600 nM.

The values are drawn from paper PMC4802085 (2016).
